B1: ADI-24812 (antibody, V domains shown)
VH: EVQLVESGGGLVQPGGSLRLSCAASGFSFSTYAMSWVRQAPGKGLEWVSAISGGGGSTYYADSVKGRFTISRDNSKNTLYLQVNSLRAEDTAVYYCARGGYCSSDSCYPFDFWGQGTLVTVSS
VL: QPVLTQPPSVSVSPGQTAMITCSGDALPKQYAYWYQQKPGQAPVLVIYKDSERPSGIPERFSGSSSGTTVTLTISGVQAEDEADYYCQSADNSGSYAVFGGGTQLTVL
notes: full-length IgG
B2: ADI-19458 (antibody, V domains shown)
VH: EVQLVESGGGRVKPGGSLRLSCAASGFTFRSYSMNWVRQAPGKGLEWVSSISSSSSYINYADSVKGRFTISRDNAKNSLYLQMNSLRAEDTAVYYCARDGSGMTIFGVVIDYWGQGTLVTVSS
VL: QSVLTQPPSVSGAPGQRVTISCTGSSSNIGAGYDVHWYQQLPGTAPKLLIYGNSNRPSGVPDRFSGSKSGTSASLAITGLQAEDEADYYCQSYDRSLTVVFGGGTKLTVL
notes: full-length IgG
B3: ADI-14334 (antibody, V domains shown)
VH: EVQLVESGGGLVKPGGSLRLSCAASGVTVSSYYMTWVRQAPGKGLEFISDISSSSTYTNYADSVKGRFTISRDNAKSSLYLQMNNLRAEDTAVYYCARLGITVTGVGYFDLWGRGTLVTVSS
VL: QPGLTQPPSVSGAPGQRVTISCTGSSSNIGAGYDVHWYQQLPGTAPKLLIHDNNNRPSGVPDRFSGSKSGTSASLAITGLQVEDEADYYCQSYDSSLSNYVFGTGTKLTVL
notes: full-length IgG; also called Ab 2
B4: ADI-19459 (antibody, V domains shown)
VH: QVQLVESGGGLVQPGGSLRLSCAASGFTVSSNYMSWVRQAPGKGLEWVSVIYSGGSTYYADSVKGRFTISRDNSKNTLYLQMNSLRAEDTAVYYCAREALGMDHWYFDLWGRGTLVTVSS
VL: SYELMQPPSVSVAPGKTARITCGGNNIGSKSVHWYQQKPGQAPVLVVYDDSDRPSGIPERFSGSNSGNTATLTISRVEAGDEADYYCQVWDSSSDHPVFGGGTKVTVL
notes: full-length IgG
B5: ADI-19428 (antibody, V domains shown)
VH: EVQLLESGGGLVKPGGSLRLSCAASGFTFSSYSMNWVRQAPGKGLEWVSSISSSSSYIYYADSVKGRFTISRDNAKNSLYLQMNSLRAEDTAVYYCARDSCSGGSCYSPRFDPWGQGTLVTVSS
VL: QSVLTQPPSVSGAPGQRVTISCTGSSSNIGAGYDVHWYQQLPGTAPKLLIYGNSNRPSGVPDRFSGSKSGTSASLAITGLQAEDEADYYCQSYDSTVVFGGGTKLTVL
notes: full-length IgG
B6: ADI-19433 (antibody, V domains shown)
VH: EVQLVESGGGLVKPGGSLRLSCAASGFTFSSYSMNWVRQAPGKGLEWVSSISSSSSYIYYADSVKGRFTISRDNAKNSLYLQMNSLRAEDTAVYYCARAPPSVGGWYFDLWGRGTLVTVSS
VL: QPVLTQPPSVSGAPGQRVTISCTGSSSNIGAGYDVHWYQQLPGTAPKLLIYGNSNRPSGVPDRFSGSKSGTSASLAITGLQAEDEADYYCQSYDSSLVFGGGTKLTVL
notes: full-length IgG
B7: ADI-19427 (antibody, V domains shown)
VH: EVQLVESGGGLVKPGGSLRLSCAASGFTFSSYSMNWVRQAPGKGLEWVSSISSSSSFISYADSVKGRFTISRDSAKNSLYLQMNSLRAEDTAVYYCARDHPNWNGLAYFDYWGQGTLVTVSS
VL: QSVLTQPPSISGAPGQRVTISCTGSSSNIGAGYDVQWHQQLPGTAPKLLIYGNSNRPSGVPDRFSGSKSGTSASLAITGLQAEDEADYYCQSYDSSLSGWVFGGGTKLTVL
notes: full-length IgG
B8: ADI-24799 (antibody, V domains shown)
VH: EVQLVESGGGLVKPGGSLRLSCAASGFTFSSYSMNWVRQAPGKGLEWVSSISSSSSYIYYADSVKGRFTISRDNAKNSLYLQMNSLRAEDTAVYYCAREGRDGYNYYFDYWGQGTLVTVSS
VL: QSVLTQPPSVSGAPGQRVTISCTGSSSNIGAGYDVHWYQQLPGTAPKLLIYGNSNRPSGVPDRFSGSKSGTSASLAITGLQAEDEADYYCQSYDSSLSGSVFGGGTKLTVL
notes: full-length IgG
B9: ADI-24859 (antibody, V domains shown)
VH: EVQLLESGGGLVKPGGSLRLSCAASGFTFSSYSMNWVRQAPGKGLEWVSSISSSSSYIYYADSVKGRFTISRDNAKNSLYLQMNSLRAEDTAVYYCARDGSPINWVSPFPFDYWGQGTLVTVSS
VL: QPVLTQPPSVSGAPGQRVTISCTGSSSNIGAGYDVHWYQQLPGTAPKLLIYGNSNRPSGVPDRFSGSKSGTSASLAITGLQAEDEADYYCQSYDSSLSGSVFGGGTQLTVL
notes: full-length IgG; also called Ab 419
B10: ADI-19509 (antibody, V domains shown)
VH: EVQLVESGGGLVKPGGSLRLSCAASGFTFSSYSMNWVRQAPGKGLEWVSSISSSSSYIYYADSVKGRFTISRDNAKNSLYLQMNSLRAEDTAVYYCASSRRSLTGDRGGWFDPWGQGTLVTVSS
VL: QSVLTQPPSVSGAPGQRVTISCTGSSSNIGAGYDVHWYQQLPGTAPKLLIYGNSNRPSGVPDRFSGSKSGTSASLAITGLQAEDEADYYCQSYDSSLSGWVFGGGTKLTVL
notes: full-length IgG
B11: ADI-25478 (antibody, V domains shown)
VH: EVQLLESGGGLVKPGGSLRLSCAASGFTFSSYSMNWVRQAPGKGLEWVSSISSSSSYIYYADSVKGRFTISRDNAKNSLYLQMNSLRAEDTAVYYCARLDYSNYYYYMDVWGKGTTVTVSS
VL: QPVLTQPPSVSGAPGQRVTISCTGSSSNIGAGYDVHWYQQLPGTAPKLLIYGNSNRPSGVPDRFSGSKSGTSASLAITGLQAEDEADYYCQSYDSSLSGYVFGTGTKLTVL
notes: full-length IgG
B12: ADI-19431 (antibody, V domains shown)
VH: EVQLVESGGGLVKPGGSLRLSCAASGFTFSSYSMNWVRQAPGKGLEWVSSISSSSSYIYYADSVKGRFTISRDNAKNSLYLQMNSLRAEDTAVYYCARELYDYVWGSYRDYWGQGTLVTVSS
VL: QPGLTQPPSVSGAPGQRVTISCTGSSSNIGAGYDVHWYQQLPGTAPKLLIYGNSNRPSGVPDRFSGSKSGTSASLAITGLQAEDEADYYCQSYDSSLSGSVFGGGTKVTVL
notes: full-length IgG
B13: ADI-14336 (antibody, V domains shown)
VH: EVQLLESGGEVKKPGASVKVSCKASGYTFTNYGISWVRQAPGQGLEWMGWISAYNGNTNYAQKLQGRVTMTTDTSTSTAYMEVRRLRSDDTAVYYCAREPPVIAAGDFQHWGQGTLVTVSS
VL: DIVMTQTPLSLPVTLGQPASISCRSSQSLVHSDTNIYLSWFQQRPGQSPRRLIYKVSNRDSGVPDRFSGSGSGTDFTLRISRVEAEDVGVYYCMQGTHWPPDFGQGTRLEIK
notes: full-length IgG; also called Ab 4
B14: ADI-19494 (antibody, V domains shown)
VH: QVQLVQSGAEVKKPGSSVKVSCKASGGTFSSYVISWVRQAPGQGLEWMGGIIPIFGTTYYAQKFQDRVTITTDESTSTAYMELSSLRSEDTAVYYCARDLRYRYNAYDGADAFDIWGQGTTVTVSS
VL: QSALTQPASVSGSPGQSITISCTGTSSDVGGYNYVSWYQQHPGKAPKLMIFEVSNRPSGVSNRFSGSKSGNTASLTISGLQAEDEADYYCTSYTKSNSVVFGGGTKLTVL
notes: full-length IgG
B15: ADI-19448 (antibody, V domains shown)
VH: EVQLLESGGGLVKPGGSLRLSCAASGFTFSSYSMNWVRQAPGKGLEWVSSISSSSSYIYYADSVKGRFTISRDNAKNSLYLQMNSLRAEDTAVYYCARELLDPGIAAAGFDYWGQGTLVTVSS
VL: QSVLTQPPSVSGAPGQRVTISCTGSSSNIGAGYDVHWYQQLPGTAPKLLIYGNSNRPSGVPDRFSGSKSGTSASLAITGLQAEDEADYYCQSYDSSLSVNYVFGTGTKVTVL
notes: full-length IgG
B16: ADI-25479 (antibody, V domains shown)
VH: EVQLVESGGGLVKPGGSLRLSCAASGFTFSSYSMNWVRQAPGKGLEWVSSISSSSSYIYYADSVKGRFTISRDNAKNSLYLQMNSLRAEDTAVYYCARGGYSYGAYYYYYMDVWGKGTTVTVSS
VL: QSVLTQPPSVSGAPGQRVTISCTGSSSNIGAGYDVHWYQQLPGTAPKLLIYGNSNRPSGVPDRFSGSKSGTSASLAITGLQAEDEADYYCQSYDSSLSGYWVFGGGTKLTVL
notes: full-length IgG
B17: ADI-25480 (antibody, V domains shown)
VH: EVQLVESGGGLVKPGGSLRLSCAASGFTFSSYSMNWVRQAPGKGLEWVSSISSSSSYIYYADSVKGRFTISRDNAKNSLYLQMNSLRAEDTAVYYCARGGYSYGAYYYYYMDVWGKGTTVTVSS
VL: QSVLTQPPSVSGAPGQRVTISCTGSSSNIGAGYDVHWYQQLPGTAPKLLIYGNSNRPSGVPDRFSGSKSGTSASLAITGLQAEDEADYYCQSYDSSLSGYWVFGGGTKVTVL
notes: full-length IgG; also called Ab 430
B18: ADI-24827 (antibody, V domains shown)
VH: EVQLVESGGGLVQPGGSLRLSCAASGFTVSSNYMSWVRQAPGKGLEWVSVIYSDGSTYYADSVKGRFTISRHNSKNTLYLQMNSLRAEDTAVYYCARCSTYGDYIDWYFDLWGRGTLVTVSS
VL: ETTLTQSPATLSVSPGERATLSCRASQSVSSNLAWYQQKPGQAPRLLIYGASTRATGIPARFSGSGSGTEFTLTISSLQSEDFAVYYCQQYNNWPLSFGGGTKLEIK
notes: full-length IgG

Key:
[1] = target: T1, RSV postfusion F (postF), subtype A (respiratory syncytial virus subtype A, UniProt P03420 26-513); assay: BLI
T1 construct: also called Postfusion subtype A; F deltaFP

[2] = target: T2, RSV prefusion F (preF), subtype B (respiratory syncytial virus subtype B); assay: BLI, IgG
T2 construct: also called Prefusion subtype B

[3] = target: RSV F on RSV subtype A virus (mKate-RSV A2) (respiratory syncytial virus A2, UniProt P03420 26-574); assay: cell-based or functional assay
[4] = target: RSV F on RSV subtype B virus (mKate-RSV B 18537) (respiratory syncytial virus B 18537, UniProt P13843 26-574); assay: cell-based or functional assay

Binder | binding result [1] | Kd [2] [nM] | Neut IC50 subtype A [3] [µg/mL] | Neut IC50 subtype B [4] [µg/mL]
B1 | no binding | 7.58 | 0.18 | 
B2 | no binding | 0.243 | 0.04 | 0.07
B3 |  | 0.622 | 0.05 | 0.11
B4 |  | 1.45 | 0.05 | 0.1
B5 | no binding | 16.7 | 3.25 | 
B6 | no binding |  | 1.56 | 
B7 | no binding | 0.5 | 0.01 | 0.03
B8 | no binding | 19 | 11.5 | 
B9 | no binding | 4.95 | 0.58 | 
B10 | no binding | 1.58 | 3.42 | 1.56
B11 | no binding | 6.43 | 2.18 | 3.52
B12 | no binding | 3.16 | 4.35 | 0.17
B13 |  | 2.65 | 0.07 | 0.09
B14 | no binding |  | 0.86 | 
B15 | no binding | 5.58 | 9.64 | 
B16 | no binding | 4.29 | 0.24 | 0.29
B17 | no binding | 4.27 | 0.17 | 0.17
B18 | no binding | 6.62 | 0.02 | 
